Measurements reported in US20240270846A1 (published 2024).
Substitutions are numbered along the chain they refer to.

B1: anti-human CD137 antibody described in WO2005/035584A1 (abbreviated as B) (antibody, V domains shown)
VH: QVQLQQWGAGLLKPSETLSLTCAVYGGSFSGYYWSWIRQSPEKGLEWIGEINHGGYVTYNPSLESRVTISVDTSKNQFSLKLSSVTAADTAVYYCARDYGPGNYDWYFDLWGRGTLVTVSS
VL: EIVLTQSPATLSLSPGERATLSCRASQSVSSYLAWYQQKPGQAPRLLIYDASNRATGIPARFSGSGSGTDFTLTISSLEPEDFAVYYCQQRSNWPPALTFGGGTKVEIK
notes: also called control anti-CD137 antibody
B2: Du115/DUL008 (antibody, V domains shown)
VH: QVQLVESGGGLVQPGRSLRLSCAASGFTFSNAWMHWVRQAPGKGLEWVAQIKDKANSYNTYYAPSVKGRFTISRDDSKNSIYLQMNSLKTEDTAVYYCRYVHYGSSYGFLFAGYGVDAWGQGTTVTVSS
VL: DIVMTQSPLSLPVTPGEPASISCQSSEELLHANRKTYLHWYQQKPGQAPRLLIYKVQNRFSGVPDRFSGSGSGTDFTLKISRVEAEDVGVYYCAQGTATPFTFGQGTKLEIK
notes: Human IgG1 format; also called dBBDu_115 with L008
B3: dBBDu183 (antibody, human IgG1, V domains shown)
VH: QVQLVESGGGLVQPGRSLRLSCAASGFTFSNAWMHWVRQAPGKGLEWVAQIKDKGNAYAAYYAPSVKGRFTISRDDSKNSIYLQMNSLKTEDTAVYYCHYVHYASASTVLPAFGVDAWGQGTTVTVSS
VL: DIVMTQSPLSLPVTPGEPASISCRSSQSLVHSNRNTYLHWYQQKPGQAPRLLIYKVSNRFSGVPDRFSGSGSGTDFTLKISRVEAEDVGVYYCGQGTQVPYTFGQGTKLEIK
notes: IgG: VH joined to human IgG1 CH1-Fc, GLS3000 as light chain
B4: dBBDu217 (antibody, human IgG1, V domains shown)
VH: QVQLVESGGGLVQPGRSLRLSCAASGFTFSNAWMHWVRQAPGKGLEWVAQIKDRQQGYATYYAPSVKGRFTISRDDSKNSIYLQMNSLKTEDTAVYYCRFVHYHLAGYGYYGVDAWGQGTTVTVSS
VL: B3 VL
notes: as for B3
B5: dBBDu125 (antibody, human IgG1, V domains shown)
VH: QVQLVESGGGLVQPGRSLRLSCAASGFTFSIAWMHWVRQAPGKGLEWVAQIKDKVNGYTAYYAESVKGRFTISRDDSKNSIYLQMNSLKTEDTAVYYCRYVHYAAYYDVLGYGGVDAWGQGTTVTVSS
VL: B3 VL
notes: IgG: VH joined to human IgG1 CH1-Fc, GLS3000 as light chain; also called DXDU01_3_#019; DXDU01_3 #019
B6: dBBDu174 (antibody, human IgG1, V domains shown)
VH: QVQLVESGGGLVQPGRSLRLSCAASGFTFSSAWMHWVRQAPGKGLEWVAQIKDRASAYNAYYAESVKGRFTISRDDSKNSIYLQMNSLKTEDTAVYYCRYVHYPSYVSFLPYYGVDAWGQGTTVTVSS
VL: B3 VL
notes: as for B3
B7: dBBDu186 (antibody, human IgG1, V domains shown)
VH: B3 VH with K54R, G55S, A57Q, A60T, S105Q
VL: B3 VL
notes: as for B3
B8: dBBDu193 (antibody, human IgG1, V domains shown)
VH: B3 VH with K54R, G55S, A57Q, A60T, A104S, S105A, V109L, A112S
VL: B3 VL
notes: as for B3
B9: dBBDu204 (antibody, human IgG1, V domains shown)
VH: B3 VH with K54R, G55S, A57N, A60T, P64E
VL: B3 VL
notes: as for B3
B10: dBBDu202 (antibody, human IgG1, V domains shown)
VH: B3 VH with A104S, S105A
VL: B3 VL
notes: as for B3
B11: dBBDu205 (antibody, human IgG1, V domains shown)
VH: B3 VH with K54R, G55S, N56Q, A57L
VL: B3 VL
notes: as for B3
B12: dBBDu196 (antibody, human IgG1, V domains shown)
VH: B3 VH with K54R, A59N, P64E
VL: B3 VL
notes: as for B3
B13: dBBDu222 (antibody, human IgG1, V domains shown)
VH: QVQLVESGGGLVQPGRSLRLSCAASGFTISSAWMHWVRQAPGKGLEWVAQIKDRANGYAAYYAPSVKGRFTISRDDSKNSIYLQMNSLKTEDTAVYYCRYVHYATAYDGFYGFGVDAWGQGTTVTVSS
VL: B3 VL
notes: as for B3
B14: dBBDu189 (antibody, human IgG1, V domains shown)
VH: B3 VH with V48I, K54R, G55S, A57Q, A60T, S105Q, T108S, V109L, A112S
VL: B3 VL
notes: as for B3
B15: dBBDu199 (antibody, human IgG1, V domains shown)
VH: B3 VH with G55Q, N56S, A57G, A59N, A60T
VL: B3 VL
notes: as for B3
B16: NNS6f56 (CE115HA340 with REATRW inserted between Kabat positions 99 and 100), one-arm antibody (antibody, V domains shown)
VH: QVQLVESGGGLVQPGRSLRLSCAASGFTFSNAWMHWVRQAPGKGLEWVAQIKDKSNNYATYYAESVKGRFTISRDDSKNSIYLQMNSLKTEDTAVYYCRYVHYAAREATRWYYGVDAWGQGTTVTVSS
VL: DIVMTQSPLSLPVTPGEPASISCRSSQSLVHSNRNTYLHWYQQKPGQAPRLLIYKVSNRFSGVPDRFSGSGSGTDFTLKISRVEAEDVGVYYCGQGTQVPYTFGQGTKLEIKR
B17: NNS6f17 (CE115HA340 with WGEGVV inserted between Kabat positions 99 and 100), one-arm antibody (antibody)
chain 1: QVQLVESGGGLVQPGRSLRLSCAASGFTFSNAWMHWVRQAPGKGLEWVAQIKDKSNNYATYYAESVKGRFTISRDDSKNSIYLQMNSLKTEDTAVYYCRYVHYAAWGEGVVYYGVDAWGQGTTVTVSSASTKGPSVFPLAPSSKSTSGGTAALGCLVKDYFPEPVTVSWNSGALTSGVHTFPAVLQSSGLYSLSSVVTVPSSSLGTQTYICNVNHKPSNTKVDKKVEPKSCDKTHTCPPCPAPEAAGGPSVFLFPPKPKDTLMISRTPEVTCVVVDVSHEDPEVKFNWYVDGVEVHNAKTKPREEQYASTYRVVSVLTVLHQDWLNGKEYKCKVSNKALPAPIEKTISKAKGQPREPQVYTLPPSRCELTKNQVSLSCAVKGFYPSDIAVEWESNGQPENNYKTTPPVLDSDGSFFLVSKLTVDKSRWQQGNVFSCSVMHEALHNHYTQKSLSLSPDYKDDDDK
chain 2: EPKSSDKTHTCPPCPAPELLGGPSVFLFPPKPKDTLMISRTPEVTCVVVDVSHEDPEVKFNWYVDGVEVHNAKTKPREEQYNSTYRVVSVLTVLHQDWLNGKEYKCKVSNKALPAPIEKTISKAKGQPREPQVCTLPPSRDELTKNQVSLWCLVKGFYPSDIAVEWESNGQPENNYKTTPPVLDSDGSFFLYSKLTVDKSRWQQGNVFSCSVMHEALHNRYTQKSLSLSP
chain 3: DIVMTQSPLSLPVTPGEPASISCRSSQSLVHSNRNTYLHWYQQKPGQAPRLLIYKVSNRFSGVPDRFSGSGSGTDFTLKISRVEAEDVGVYYCGQGTQVPYTFGQGTKLEIKRTVAAPSVFIFPPSDEQLKSGTASVVCLLNNFYPREAKVQWKVDNALQSGNSQESVTEQDSKDSTYSLSSTLTLSKADYEKHKVYACEVTHQGLSSPVTKSFNRGEC
B18: NNS6f52 (CE115HA340 with YMLGLG inserted between Kabat positions 99 and 100), one-arm antibody (antibody)
chain 1: B17 chain 1 with W106Y, G107M, E108L, V110L, V111G
chain 2: B17 chain 2
chain 3: B17 chain 3
B19: NNS6f55 (CE115HA340 with AGRWLA inserted between Kabat positions 99 and 100), one-arm antibody (antibody)
chain 1: B17 chain 1 with W106A, E108R, G109W, V110L, V111A
chain 2: B17 chain 2
chain 3: B17 chain 3
B20: NNS6f50 (CE115HA340 with LTGGLG inserted between Kabat positions 99 and 100), one-arm antibody (antibody)
chain 1: B17 chain 1 with W106L, G107T, E108G, V110L, V111G
chain 2: B17 chain 2
chain 3: B17 chain 3
B21: NNS6f29 (CE115HA340 with IYYPTN inserted between Kabat positions 99 and 100), one-arm antibody (antibody)
chain 1: B17 chain 1 with W106I, G107Y, E108Y, G109P, V110T, V111N
chain 2: B17 chain 2
chain 3: B17 chain 3
B22: NNS6f27 (CE115HA340 with VWGSVW inserted between Kabat positions 99 and 100), one-arm antibody (antibody)
chain 1: B17 chain 1 with W106V, G107W, E108G, G109S, V111W
chain 2: B17 chain 2
chain 3: B17 chain 3
B23: NNS6f47 (CE115HA340 with HFMWWG inserted between Kabat positions 99 and 100), one-arm antibody (antibody)
chain 1: B17 chain 1 with W106H, G107F, E108M, G109W, V110W, V111G
chain 2: B17 chain 2
chain 3: B17 chain 3
B24: NNS6f51 (CE115HA340 with GFLVLW inserted between Kabat positions 99 and 100), one-arm antibody (antibody)
chain 1: B17 chain 1 with W106G, G107F, E108L, G109V, V110L, V111W
chain 2: B17 chain 2
chain 3: B17 chain 3
B25: NNS6f54 (CE115HA340 with FEWVGW inserted between Kabat positions 99 and 100), one-arm antibody (antibody)
chain 1: B17 chain 1 with W106F, G107E, E108W, G109V, V110G, V111W
chain 2: B17 chain 2
chain 3: B17 chain 3

target: T1, biotin-labeled human CD137 fused to human IgG1 Fc fragment (human, biotin-labeled); experiment: bead ELISA, IgG on biotin-human CD137-Fc on streptavidin beads, no free CD3e
T1 construct: Immobilised on streptavidin beads through biotin; also called human CD137-Fc; biotin-human CD137-Fc
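For ELISA signal, free CD3e 125 pmol/well in this document: bead ELISA on streptavidin-coated magnetic beads, with the signal read as well fluorescence 2 min after APS-5 addition.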

Binder	ELISA signal, free CD3e 0 pmol/well
B1	99400
B2	86200
B3	34000
B4	19100
B5	61400
B6	4800
B7	34800
B8	18200
B9	43700
B10	12100
B11	45200
B12	33100
B13	7190
B14	27400
B15	40900

Target: T2, biotinylated CD3 epsilon epitope peptide (UniProt P07766 22-48, biotinylated)
T2 chain: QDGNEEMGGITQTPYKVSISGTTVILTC
Experiment: SPR (Biacore); biotinylated CD3 epsilon epitope peptide on chip via streptavidin, antibody as analyte

Binder	Kd
B16	21 nM
B17	74 nM
B18	52 nM
B19	31 nM
B20	71 nM
B21	90 nM
B22	38 nM
B23	31 nM
B24	31 nM
B25	29 nM

target: T1, biotin-labeled human CD137 fused to …; experiment: competitive bead ELISA, IgG on biotin-human CD137-Fc, competitor free CD3 epsilon peptide 125 pmol/well

Binder	ELISA signal, free CD3e 125 pmol/well
B1	98100
B2	2620
B3	2370
B4	2420
B5	2060
B6	1880
B7	2500
B8	2280
B9	1880
B10	1930
B11	2190
B12	2220
B13	3240
B14	2190
B15	2370

target: T1, biotin-labeled human CD137 fused to …; experiment: competitive bead ELISA, decrease of signal on biotin-human CD137-Fc with 125 pmol/well free CD3 epsilon peptide against 0

Binder	Signal decrease
B1	1.26%
B2	97%
B3	93%
B4	87.3%
B5	96.7%
B6	60.8%
B7	92.8%
B8	87.5%
B9	95.7%
B10	84%
B11	95.2%
B12	93.3%
B13	55%
B14	92%
B15	94.2%
